Data taken from patent publication US20140086829A1 (BIOREC S A, published 2014).

Key:
[1] = target: P64K-VEGFKDR- (human) (UniProt P15692); experiment: ELISA; antigen coated 1 µg/ml; scFv 10 µg/mL; 9E10-peroxidase
[2] = target: T1, isoform 165 of human VEGF-A (Peprotech) (human, UniProt P15692-4 27-191); experiment: SPR, BIAcore-X; VEGF 165 coupled to CM5 chip; scFv injected; Langmuir 1:1
T1 construct: also called human VEGF165; VEGF 165

[3] = target: T2, human GST-VEGF (human, UniProt P15692-9 27-147); experiment: competition ELISA on coated GST-VEGF; soluble scFv 2H1 titrated; competitor phage scFv L2
T2 construct: also called GST-VEGF humano; not shown: GST fusion partner
T2 sequence (looked up): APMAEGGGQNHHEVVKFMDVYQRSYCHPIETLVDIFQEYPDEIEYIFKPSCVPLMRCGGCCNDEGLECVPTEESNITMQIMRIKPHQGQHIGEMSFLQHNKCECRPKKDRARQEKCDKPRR

[4] = target: T2, human GST-VEGF; experiment: competition ELISA on coated GST-VEGF; soluble scFv 2H1 titrated; competitor phage scFv L3
[5] = target: T2, human GST-VEGF; experiment: competition ELISA on coated GST-VEGF; soluble scFv 2H1 titrated; competitor phage scFv 2A7
[6] = target: T2, human GST-VEGF; experiment: competition ELISA on coated GST-VEGF; soluble scFv 2H1 titrated; competitor phage scFv 3C4
[7] = target: T2, human GST-VEGF; experiment: competition ELISA on coated GST-VEGF; soluble scFv 2H1 titrated; competitor phage scFv 3E1
[8] = target: T2, human GST-VEGF; experiment: competition ELISA on coated GST-VEGF; soluble scFv 2H1 titrated; competitor phage scFv 3E4
[9] = target: T2, human GST-VEGF; experiment: competition ELISA on coated GST-VEGF; soluble scFv 2H1 titrated; competitor phage scFv 4D8
[10] = target: T2, human GST-VEGF; experiment: competition ELISA on coated GST-VEGF; soluble scFv 2H1 titrated; competitor phage scFv 4H3
[11] = target: T2, human GST-VEGF; experiment: competition ELISA on coated GST-VEGF; soluble scFv 2H1 titrated; competitor phage scFv 1E9
[12] = target: T2, human GST-VEGF; experiment: competition ELISA on coated GST-VEGF; soluble scFv 2H1 titrated; competitor phage scFv 1H3
[13] = target: T2, human GST-VEGF; experiment: competition ELISA on coated GST-VEGF; soluble scFv 2H1 titrated; competitor phage scFv 2F6
[14] = target: T2, human GST-VEGF; experiment: competition ELISA on coated GST-VEGF; soluble scFv 2H1 titrated; competitor phage scFv 2H8
[15] = target: T2, human GST-VEGF; experiment: competition ELISA on coated GST-VEGF; soluble scFv 2H1 titrated; competitor phage scFv 1B1
[16] = target: T2, human GST-VEGF; experiment: competition ELISA on coated GST-VEGF; soluble scFv 2H1 titrated; competitor phage scFv 1H2
[17] = target: T2, human GST-VEGF; experiment: competition ELISA on coated GST-VEGF; soluble scFv 2H1 titrated; competitor phage scFv 1H3; remark: listed apart in the source
[18] = target: T2, human GST-VEGF; experiment: competition ELISA on coated GST-VEGF; soluble scFv 2H1 titrated; competitor phage scFv 2F6; remark: listed apart in the source
[19] = target: T2, human GST-VEGF; experiment: competition ELISA on coated GST-VEGF; soluble scFv 2H1 titrated; competitor phage scFv 4D8; remark: listed apart in the source
[20] = target: T2, human GST-VEGF; experiment: competition ELISA on coated GST-VEGF; soluble scFv 2H1 titrated; competitor phage scFv 3E10
[21] = target: T2, human GST-VEGF; experiment: competition ELISA on coated GST-VEGF; soluble scFv 2H1 titrated; competitor phage scFv 3E12
[22] = target: T2, human GST-VEGF; experiment: competition ELISA on coated GST-VEGF; soluble scFv 2H1 titrated; competitor phage scFv 4E11
[23] = target: T2, human GST-VEGF; experiment: competition ELISA on coated GST-VEGF; soluble scFv 2H1 titrated; competitor phage scFv 1D12
[24] = target: T2, human GST-VEGF; experiment: competition ELISA on coated GST-VEGF; soluble scFv 2H1 titrated; competitor phage scFv 2D1O
[25] = target: T2, human GST-VEGF; experiment: competition ELISA on coated GST-VEGF; soluble scFv 2H1 titrated; competitor phage scFv 2H10
[26] = target: T2, human GST-VEGF; experiment: competition ELISA on coated GST-VEGF; soluble scFv 2H1 titrated; competitor phage scFv L3H7
[27] = target: T2, human GST-VEGF; experiment: competition ELISA on coated GST-VEGF; soluble scFv 2H1 titrated; competitor phage scFv 2H1 original

T1 sequence (P15692 other isoform, or with tags, fused parts or gaps limits assumed): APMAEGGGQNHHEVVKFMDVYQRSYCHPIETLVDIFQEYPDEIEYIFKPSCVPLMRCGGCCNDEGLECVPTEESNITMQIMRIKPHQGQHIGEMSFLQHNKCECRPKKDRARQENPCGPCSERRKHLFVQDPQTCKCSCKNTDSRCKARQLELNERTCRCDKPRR

B1: soluble scFv 2H1 antibody fragment (scFv, from another filing)
scFv: QQVQLVQSGAEVKKPGESLKISCKGSGYSFTSYWIGWVRQMPGKGLEWMGIIYPGDSDTRYSPSFQGQVTISADKSISTAYLQWSSLKASDTAMYYCARLVVRDTEIWGQGTMVTVSSAPQAKSSGSGSESKVDQAVVTQEPSLTVSPGGTVTLTCASSIGAVTSGNYPNWFQQRPGQPPRALIYSTSNKHSWTPARFSGSLLGGKAALTLSGAQPEDEAEYYCLLSYSGARPVFGGGTKLTVLGAAAGSEQKLISEEDLNSHHHHHH
[1]
  absorbance at 492 nm: 0.764
[2]
  Kd: 457 nM
[3]
  IC50: 126 µg/mL
[4]
  IC50: 350 µg/mL
[5]
  IC50: 15.8 µg/mL
[6]
  IC50: 29 µg/mL
[7]
  IC50: 21.2 µg/mL
[8]
  IC50: 13.5 µg/mL
[9]
  IC50: 32 µg/mL
[10]
  IC50: 12.2 µg/mL
[11]
  IC50: 46.2 µg/mL
[12]
  IC50: 117 µg/mL
[13]
  IC50: 119 µg/mL
[14]
  IC50: 46.6 µg/mL
[15]
  IC50: 149 µg/mL
[16]
  IC50: 120 µg/mL
[17]
  IC50: 110 µg/mL
[18]
  IC50: 115 µg/mL
[19]
  IC50: 33 µg/mL
[20]
  IC50: 15.1 µg/mL
[21]
  IC50: 18.3 µg/mL
[22]
  IC50: 5.28 µg/mL
[23]
  IC50: 58.9 µg/mL
[24]
  IC50: 65.7 µg/mL
[25]
  IC50: 10.2 µg/mL
[26]
  IC50: 890 µg/mL
[27]
  IC50: 4.89 µg/mL
